# In patent US20240199757A1 (UNIVERSITY OF CHICAGO, published 2024):
# Residue numbers refer to the chain shown, from its start.
# T1: Full-length cynomolgus NT5E (recombinant) (cynomolgus, UniProt P21589 27-549 (human entry))
# T1 construct: also called cNT5E; cyno NT5E
# T1 chain: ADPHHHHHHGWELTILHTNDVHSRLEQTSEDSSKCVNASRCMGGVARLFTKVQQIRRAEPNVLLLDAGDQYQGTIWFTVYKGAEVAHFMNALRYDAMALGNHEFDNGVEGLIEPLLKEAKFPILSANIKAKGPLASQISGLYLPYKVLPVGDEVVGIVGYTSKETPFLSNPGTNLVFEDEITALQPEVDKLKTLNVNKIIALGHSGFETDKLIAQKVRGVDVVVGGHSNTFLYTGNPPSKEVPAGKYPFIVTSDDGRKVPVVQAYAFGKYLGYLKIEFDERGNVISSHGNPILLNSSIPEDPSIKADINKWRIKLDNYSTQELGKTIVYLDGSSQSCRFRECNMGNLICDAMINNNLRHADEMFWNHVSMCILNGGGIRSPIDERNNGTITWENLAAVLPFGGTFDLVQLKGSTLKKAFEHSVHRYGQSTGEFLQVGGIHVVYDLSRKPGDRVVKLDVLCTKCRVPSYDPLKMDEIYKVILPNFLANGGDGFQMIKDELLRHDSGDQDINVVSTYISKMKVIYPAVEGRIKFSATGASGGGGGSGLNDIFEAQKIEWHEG
# T2: Full-length human NT5E (recombinant, in-house) (human, UniProt P21589 27-549)
# T2 construct: also called hNT5E; hNT5EWT
# T2 sequence: T1 chain with T209M, M363T, I476V
# T3: Full-length murine NT5E (recombinant) (murine, UniProt Q61503 29-552)
# T3 construct: also called mNT5E
# T3 sequence: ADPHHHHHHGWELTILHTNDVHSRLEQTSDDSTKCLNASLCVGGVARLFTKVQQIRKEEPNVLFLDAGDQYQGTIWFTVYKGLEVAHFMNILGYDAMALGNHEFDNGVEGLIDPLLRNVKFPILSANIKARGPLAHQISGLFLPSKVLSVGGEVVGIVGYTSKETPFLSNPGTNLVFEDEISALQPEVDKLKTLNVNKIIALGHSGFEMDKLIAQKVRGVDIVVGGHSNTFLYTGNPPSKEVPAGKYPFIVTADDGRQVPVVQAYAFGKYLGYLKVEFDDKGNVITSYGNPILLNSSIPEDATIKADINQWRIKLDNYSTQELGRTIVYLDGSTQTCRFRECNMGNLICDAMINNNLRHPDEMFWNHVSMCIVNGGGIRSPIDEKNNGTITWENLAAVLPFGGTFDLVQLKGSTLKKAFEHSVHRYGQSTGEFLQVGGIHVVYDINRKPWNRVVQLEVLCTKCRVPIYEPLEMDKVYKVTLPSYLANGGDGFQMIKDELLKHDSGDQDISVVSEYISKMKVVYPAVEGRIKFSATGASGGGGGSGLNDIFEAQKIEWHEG
# B1: 1789 Fab (Fab, V domains shown)
# VH: EVQLVESGGGLVQPGGSLRLSCAASGFNVSYSSIHWVRQAPGKGLEWVASISSSSGYTYYADSVKGRFTISADTSKNTAYLQMNSLRAEDTAVYYCARNYWGWYPFYYFAFDYWGQGTLVTV
# VL: DIQMTQSPSSLSASVGDRVTITCRASQSVSSAVAWYQQKPGKAPKLLIYSASSLYSGVPSRFSGSRSGTDFTLTISSLQPEDFATYYCQQGWDYPITFGQGTKVEIKR
# B2: 1789 IgG (antibody, V domains shown)
# VH: EVQLVESGGGLVQPGGSLRLSCAASGFNVSYSSIHWVRQAPGKGLEWVASISSSSGYTYYADSVKGRFTISADTSKNTAYLQMNSLRAEDTAVYYCARNYWGWYPFYYFAFDYWGQGTLVTVSS
# VL: B1 VL
# Key:
# [1] = target: T1, Full-length cynomolgus NT5E …; experiment: SPR, His-captured NT5E, no ATP; SPR, No ATP
# Description: All SPR experiments were performed at 25° C. using MASS-1 (Bruker) instrument. hNT5E, mNT5E and cNT5E were immobilized onto a nitrilotriacetic acid (NTA) sensor chip via His-tag. For kinetic experiments, after ligand immobilization, 2-fold serial dilutions of the Fabs were injected. After double-reference subtraction data were analyzed with BiaEvaluation (GE Healthcare) or Sierra Analyser (Bruker) software. The experiments were carried in buffers in presence and absence of 1 mM ATP to compare the kinetic parameters of the Fabs binding to closed and open form of NT5E.
# [2] = target: T2, Full-length human NT5E (recombinant, …); experiment: DSF thermal shift, 1.5-fold molar excess of Fab, 1 mM ATP (NT5E alone 59° C. and 64° C.)
# Description: With 1 mM ATP alone (red dashed line), the TM shifts from one transition at 49° C. to two transitions at TM 59° C. and 64° C. […] Thermal shift assays of substrate binding knock-out variants hNT5EDF (FIG. 2B) and hNT5EFF (FIG. 2C) show no change in thermal stability with the addition of ATP.
# Thermal stability of samples was analyzed by differential scanning fluorimetry (DSF) using a real-time PCR instrument (Bio-Rad CFX384). Protein samples were mixed with 4× Sypro Orange at a final 4 μM concentration. For target/Fab complexes, 1.5-fold molar excess of Fab was used. All reactions were performed in triplicates in a 384-well plate. Thermal melting curves were monitored from 25° C. to 95° C. in steps of 0.5° C./30 s. Wavelengths of 490 and 575 nm were used for excitation and emission, respectively. The melting temperatures were inferred from the first derivative of the melting curves from the mean of triplicate runs using CFX software provided by the manufacturer.
# [3] = target: T3, Full-length murine NT5E (recombinant); experiment: ELISA, biotinylated NT5E on neutravidin plate, 1 mM ATP
# Description: (B) Protein ELISA: Protein-based multipoint ELISA was performed to estimate the affinity of the generated Fabs and IgGs to NT5E. The binding of the Fabs and IgGs to the closed form of NT5E were determined in ELISA buffer (HBST) supplemented with 10 μM zinc chloride and 1 mM ATP while the binding of the same to open form of NT5E were determined in ELISA buffer (HBST) without any cofactors. A fixed concentration of the immobilized target (50 nM) on ELISA plate was incubated with 3-fold serial dilutions of the purified Fabs and IgGs starting from 3 μM and 1 μM respectively for 15 min. The plates were washed and were subsequently incubated with a secondary HRP-conjugated anti-protein L monoclonal antibody (#32420, ThermoFisher, 1:6000 dilution). As with phage ELISA, the plates were again washed, developed with TMB substrate and quenched with 1.0 M HCl, and absorbance (Abs450) was determined. To determine the affinity (EC50), the data were fitted with a non-linear, 4-parameter logistic curve in OriginLab.
binder,measurement,setting,value
B1,kon,[1],140000 M⁻¹ s⁻¹
same,TM of NT5E in the presence of the Fab,[2],66 ° C.
B2,EC50,[3],1.14 nM
